Data reported in the supplement of paper PMC9170038.

System: K4 kissing-loop RNA reporter
Assay: apparent KD of K4 kissing-loop reporter; higher = weaker reporter binding
Conditions: Eterna round: R107
Procedure: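 RNA-MaP round R107: designed RNA switches with theophylline, tryptophan, arginine or FMN aptamers are transcribed on-chip within common flanks. They are titrated with a labelled K4 kissing-loop RNA reporter in RNA-MaP buffer (100 mM Tris pH 7.5, 80 mM KCl, 4 mM MgCl2), without ligand or with the indicated ligand. Median apparent KD per design.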

[1] = input ligand: theophylline 20 uM
[2] = input ligand: tryptophan 2.4 mM
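Note: bound reporter read as fluorescence of individual clusters on recovered sequencing chips by microscopy, with normalized cluster intensities fitted with a binding model.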

| Sequence | apparent KD of K4 kissing-loop reporter (input ligand: FMN 200 uM) [nM] | apparent KD of K4 kissing-loop reporter (input ligand: arginine 13.2 mM) [nM] | apparent KD of K4 kissing-loop reporter (input ligand: none) [nM] | apparent KD of K4 kissing-loop reporter [1] [nM] | apparent KD of K4 kissing-loop reporter [2] [nM] |
| --- | --- | --- | --- | --- | --- |
| ACCGGACAAGAGGUGUCAGUGAUGUUGGCGCGAGGACCGGUACGGCCGCCACUCGAGGAAAGCGGUCACGCCCUGGUAGGACUGG [theeternabot_exclusion_KL_Trp_A_22] | 169 | 106 | 144 | 128 | 251 |
| ACCUUAUUUGCCAGUGAUGUUGGACAGGAAGGAGCGGGCAUAAGCCCAGGUAGGUCGCCUGUCAACUUUCUUAUAGCCCAAAGGU [KL-XArg-A18] | 308 | 253 | 396 | 314 | 294 |
| ACGAAGGAUGGAAGGAGCGCUCGUCAGUCCUGCGAGUGAUGUUCGUGGGUAAAUAGUCGCGAGCAGGUAGGUCGCCAUCUUGAGC [Isarteza] | 133 | 104 | 119 | 112 | 108 |
| ACGAUCUUCGGCCUAUGAGUGAUGUUUAUGCGAGGACCGGUACGGCCGCCACUCGGGCGGUUAUUCACUACGCCUCUUCCGUCGA [theeternabot_exclusion_KL_Trp_A_37] | 900 | 435 | 1040 | 517 | 649 |
| ACGCGCGCGAGUGAUGUUCGGAGCGGCUGGCAGGAUAUGGAGCAAUCCAGAAGGGUCGUGGCUGCUGGUAGGAAACUACUGGCAG [#2 Exclusion - FMN A Attempt #3 (HarryS)] | 135 | 239 | 350 | 330 | 299 |
| ACGCGCGCGAGUGAUGUUCGGAGCGGCUGGCAGGAUAUGUAGCAAUGCAGAAGGGUCGUGGCGGCGCGGCCGUAAGGCGGCGCCG [#2 Exclusion - FMN A Attempt #14 (HarryS)] | 173 | 310 | 404 | 535 | 237 |
| ACGUAGUUCUAGGAUACCAGCCAAAUAGCCAGGACGAGAGUCCUGGCUGCCAGUGAUGUUGGCCCUUGGCAGCCUAGAACUACGA [Theo B Ex Mod Omei v10] | 166 | 134 | 138 | 233 | 146 |
| ACGUAGUUCUAGGAUACCAGCCAAAUAGCCAGGACGAGAGUCCUGGCUGCCAGUGAUGUUGGCCCUUGGCAGCCUAGAUCUUCUU [zmodel 1] | 161 | 136 | 144 | 218 | 149 |
| ACGUAGUUCUAGGAUACCAGCCAAGGAGCCCAGGACAAAAGUCCUGGCGCCAGUGAUGUUGGCCCUUGGCAGCCUAGAACUACGA [Omei KL Theo B Exc B v4] | 181 | 157 | 157 | 136 | 151 |
| ACGUCCGGAUUAAUCGUGGGCAUGGUGGAUACCAGUUCUUUAAUGAACCCUUGGCAGCCACAUGAGUGAUGUUCAUGUGCGAUGA [KL-XTheo-A9 #analogue] | 145 | 117 | 141 | 187 | 140 |
| ACGUGCACCAGUGAUGUUGGAAAAUAUGAAGGAGCGGGCGAAAGCCCAGGUAGGUCGCAUAAUAGCACGAGCCACGAAAGUGGCA [#SwitchBubble 20 #K4Early] | 125 | 137 | 184 | 132 | 126 |
| ACUGAGCAUGCGGCCGCCACUUCAGAACGUCGCCCGGAGGGCGACGCCUCCGCAGUGAUGUUGCGGAGGACCGGGCAUGUUCAGA [Omei KL Tryp B Exc A v4] | 90.4 | 78.4 | 99.8 | 77.9 | 85.3 |
| ACUGGAAACAUCACGUAUCCAAAACUGGAUACCAGCUCGGAAACGAGCCCUUGGCAGCCAGAACUUGCAGUGAUGUUGCAAGUAA [Design9] | 386 | 323 | 384 | 392 | 398 |
| AGAAACUUGUAUGUCGGCCCUGCGCGCGAUACCAGCCAAAUGGAUGGCCCUUGGCAGCGCAGCGAGUGAUGUUCGCCCGGCUGAC [Exclusion Theophylline A GF 21] | 77 | 108 | 95.9 | 110 | 65.7 |
| AGAACUGUCUGAGAUACCAGCCAAGGAGUGAUGUUCCGGCUCGACGAAACGUCGAGCAAUGGCCCUUGGCAGCUCAGACAGUUCA [Omei KL Theo B SS A v3] | 387 | 80.9 | 182 | 398 | 242 |
| AGAACUGUCUGAGAUACCAGCCAGGAAGUGAUGUUUCCAGCUCGACGAAAGUCGAGCCAUGGCCCUUGGCAGCUCAGACAGUUCA [Omei KL Theo B SS A v4] | 178 | 147 | 149 | 118 | 166 |
| AGAACUGUCUGAGAUACCAGCCGAGGAGUGAUGUUCCGGCUCGACGAAACGUCGAGCCACGGCCCUUGGCAGCUCAGACAGUUCA [Omei KL Theo B SS A v1] | 1360 | 287 | 647 | 1060 | 455 |
